IntAct's records for PubMed 15294869

Target: pir_arath PIR (UniProt Q5S2C3)
Sequence (Q5S2C3 whole entry): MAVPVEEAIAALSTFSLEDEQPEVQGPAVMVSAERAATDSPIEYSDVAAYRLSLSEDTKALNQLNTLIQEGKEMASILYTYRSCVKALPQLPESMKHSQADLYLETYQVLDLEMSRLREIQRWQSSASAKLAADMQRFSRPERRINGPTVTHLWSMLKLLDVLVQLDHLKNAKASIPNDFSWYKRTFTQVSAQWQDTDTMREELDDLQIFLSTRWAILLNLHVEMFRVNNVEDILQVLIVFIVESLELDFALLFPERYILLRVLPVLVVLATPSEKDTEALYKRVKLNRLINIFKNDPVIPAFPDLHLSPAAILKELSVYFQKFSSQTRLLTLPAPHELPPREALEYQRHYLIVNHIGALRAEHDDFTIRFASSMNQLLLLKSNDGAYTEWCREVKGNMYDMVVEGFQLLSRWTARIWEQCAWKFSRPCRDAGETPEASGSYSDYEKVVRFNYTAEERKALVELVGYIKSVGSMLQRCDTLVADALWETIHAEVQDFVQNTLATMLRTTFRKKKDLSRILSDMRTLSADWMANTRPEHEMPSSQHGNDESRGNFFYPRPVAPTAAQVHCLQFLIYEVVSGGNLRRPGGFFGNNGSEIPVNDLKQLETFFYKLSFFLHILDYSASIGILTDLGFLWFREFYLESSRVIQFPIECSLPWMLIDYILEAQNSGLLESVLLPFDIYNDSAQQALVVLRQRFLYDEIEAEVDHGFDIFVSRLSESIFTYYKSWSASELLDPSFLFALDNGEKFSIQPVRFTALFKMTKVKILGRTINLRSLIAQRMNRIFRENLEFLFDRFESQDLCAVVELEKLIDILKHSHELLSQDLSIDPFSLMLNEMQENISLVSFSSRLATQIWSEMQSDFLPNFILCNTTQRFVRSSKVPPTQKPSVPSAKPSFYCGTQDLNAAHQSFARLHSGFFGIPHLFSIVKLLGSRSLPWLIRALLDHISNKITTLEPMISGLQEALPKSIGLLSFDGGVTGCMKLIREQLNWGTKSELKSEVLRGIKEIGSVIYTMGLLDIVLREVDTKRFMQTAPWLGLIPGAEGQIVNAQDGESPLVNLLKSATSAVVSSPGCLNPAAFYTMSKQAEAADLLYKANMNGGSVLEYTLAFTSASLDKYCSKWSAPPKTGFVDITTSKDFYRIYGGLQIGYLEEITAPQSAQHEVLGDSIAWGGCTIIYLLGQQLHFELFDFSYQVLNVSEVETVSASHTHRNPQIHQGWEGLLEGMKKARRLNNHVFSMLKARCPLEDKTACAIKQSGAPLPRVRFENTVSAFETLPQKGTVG

Sequence of Rac-like GTP-binding protein ARAC4 (Arabidopsis thaliana (Mouse-ear cress)), Q38919 T19N (Q38919 whole entry T19N): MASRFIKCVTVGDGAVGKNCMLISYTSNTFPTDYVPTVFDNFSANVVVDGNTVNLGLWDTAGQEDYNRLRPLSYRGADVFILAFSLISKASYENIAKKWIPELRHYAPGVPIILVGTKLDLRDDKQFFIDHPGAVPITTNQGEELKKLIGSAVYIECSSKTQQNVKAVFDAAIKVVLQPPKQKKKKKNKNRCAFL
Sequence of Rac-like GTP-binding protein ARAC4 (Arabidopsis thaliana (Mouse-ear cress)), Q38919 D120A (Q38919 whole entry D120A): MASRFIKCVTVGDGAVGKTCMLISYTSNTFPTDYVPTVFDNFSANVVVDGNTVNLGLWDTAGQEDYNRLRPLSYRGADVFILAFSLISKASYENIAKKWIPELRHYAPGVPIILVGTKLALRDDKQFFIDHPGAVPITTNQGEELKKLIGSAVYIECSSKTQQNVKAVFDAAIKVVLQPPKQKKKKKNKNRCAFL

Substance	effect of a mutation on the interaction
Rac-like GTP-binding protein ARAC4 (Arabidopsis thaliana (Mouse-ear cress)), Q38919 D120A	disrupting interaction
Rac-like GTP-binding protein ARAC4 (Arabidopsis thaliana (Mouse-ear cress)), Q38919 T19N	disrupting interaction
